# Results reported in US20250295801A1, “CD25 ANTIBODIES, ANTIBODY DRUG CONJUGATES, AND USES THEREOF” (Seagen Inc., priority 2024, published 2025).
# Residue numbers refer to the chain shown, from its start.
# B1: CD25 antibody SG25Ab-9 (antibody, human IgG1, lambda, V domains shown)
# VH: QVQLVQSGAEVKKPGESLKISCKGSGYSSTSYWIGWVRQMPGKGLEWMGIIYPGDSDTRYSPSFQGQVTISADKSISTAYLQWSSLKASDTAMYYCARLGSYYAFDIWGRGTMVTVSS
# VL: QSALTQPASVSASPGQSITISCTGTSSDVGAYIYVSWYQQLSGKPPKLILYDVSKRPSGISDRFSGSKSGNTASLTISGLQADDEADYYCSSYTRSSTWVFGGGTQLTVLG
# notes: Fully human antibody from a phage scFv library, expressed as IgG1 with a lambda light chain; HC and LC are the entries without signal peptide; also called SG25Ab-9 IgG1; SGAb25-9
# B2: SG25Ab-9 variant SH55N (antibody, V domains shown)
# VH: B1 VH with S56N
# VL: B1 VL
# B3: SG25Ab-9 variant SH28W (antibody, V domains shown)
# VH: B1 VH with S28W
# VL: B1 VL
# B4: SG25Ab-9 variant YH27A (antibody, V domains shown)
# VH: B1 VH with Y27A
# VL: B1 VL
# B5: SG25Ab-9 variant GH53Y (antibody, V domains shown)
# VH: B1 VH with G54Y
# VL: B1 VL
# B6: detuned CD25 antibody SG25Ab-9 YH98A (antibody, human IgG1, lambda, V domains shown)
# VH: B1 VH with Y102A
# VL: B1 VL
# notes: IgG1; Tyr to Ala in CDR-H3 (YH98A); also called SGAb25-9 YH98A
# B7: SG25Ab-9 variant FH100AA (antibody, V domains shown)
# VH: B1 VH with F105A
# VL: B1 VL
# B8: SG25Ab-9 variant DH101K (antibody, V domains shown)
# VH: B1 VH with D106K
# VL: B1 VL
# B9: SG25Ab-9 variant FH100AN (antibody, V domains shown)
# VH: B1 VH with F105N
# VL: B1 VL
# B10: PC61 mIgG2a (antibody, from another filing, V domains shown)
# VH: EVQLQQSGAELVRPGTSVKLSCKVSGDTITAYYIHFVKQRPGQGLEWIGRIDPEDDSTEYAEKFKNKATITANTSSNTAHLKYSRLTSEDTATYFCTTDNMGATEFVYWGQGTLVTVSS
# VL: QVVLTQPKSVSASLESTVKLSCKLNSGNIGSYYMHWYQQREGRSPTNLIYRDDKRPDGAPDRFSGSIDISSNSAFLTINNVQTEDEAMYFCHSYDGRMYIFGGGTKLTV
# B11: CD25 antibody SG25Ab-4 (antibody, human IgG1, lambda, V domains shown)
# VH: EVQLVQSGAEVKKPGESLKISCKGPEYSFNRYWIAWVRQRPGKGLEWMGIIYPGDSDARYSPTFEGHVTLSADMSLTTAYLQWSSLRASDTAMYYCARLGSYYAFDIWGKGTMVTVSS
# VL: QSALTQPASVSGSPGQSITIFCTGTSSDVGGYNYVSWYQQHPGKAPKLMIYDVSKRPSGVSNRFSGSKSGNTASLTISGLQAEDEADYYCSSYTSSSTWVFGGGTQLTVLS
# notes: IgG1 format; also called SGAb25-4
# B12: SG25Ab-9 variant DH54K (antibody, V domains shown)
# VH: B1 VH with D55K
# VL: B1 VL
# B13: SG25Ab-9 variant YH32A (antibody, V domains shown)
# VH: B1 VH with Y32A
# VL: B1 VL
# B14: SG25Ab-9 variant DH56K (antibody, V domains shown)
# VH: B1 VH with D57K
# VL: B1 VL
# B15: SG25Ab-9 variant YH52A (antibody, V domains shown)
# VH: B1 VH with Y52A
# VL: B1 VL
# B16: SG25Ab-9 variant GH96W (antibody, V domains shown)
# VH: B1 VH with G100W
# VL: B1 VL
# B17: SG25Ab-9 variant AH100F (antibody, V domains shown)
# VH: B1 VH with A104F
# VL: B1 VL
# B18: SG25Ab-9 variant YH99A (antibody, V domains shown)
# VH: B1 VH with Y103A
# VL: B1 VL
# notes: Kabat-type numbering, not linear
# Molecular target: T1, recombinant human CD25 (human, UniProt P01589 22-213, limits assumed, biotinylated in the Octet kinetic assay (site not stated))
# T1 construct: Soluble recombinant antigen; It was coated on plates for ELISA and used as bought biotinylated protein for BLI; The ELISA and BLI reagents may be different constructs; also called hCD25; CD25/IL2RA
# T1 sequence: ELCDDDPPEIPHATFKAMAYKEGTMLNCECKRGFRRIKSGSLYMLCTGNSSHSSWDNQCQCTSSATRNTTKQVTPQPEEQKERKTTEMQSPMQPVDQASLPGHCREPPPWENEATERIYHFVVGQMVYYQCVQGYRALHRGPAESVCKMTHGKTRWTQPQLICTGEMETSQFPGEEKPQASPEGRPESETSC
# Experiment: saturation binding ELISA on recombinant human CD25
# Method: (§1) Saturation binding ELISA experiments were performed using soluble recombinant antigens, which were diluted to an appropriate concentration in 50 mM carbonate buffer, pH 9.6. To each well of a 96- or 384-well Maxisorb ELISA plate was added 100 μL of soluble antigen. The plate was sealed and stored at 4° C. overnight. The plate was then washed 3-5 times with PBS-T was buffer (PBS, pH 7.4+0.05% Tween-20). The wells were blocked using 300 μL/well of PBS-T buffer containing BSA for 1 hour at room temperature, then washed 3-5 times with PBS-T. Dilutions of antibodies were prepared in blocking buffer and added to each well in a volume of 100 μL. The antibodies were incubated for 1 hour at room temperature, and then washed 3-5 times with PBS-T. HRP-conjugated secondary antibodies (anti-human Fc) were then added and incubated for 1 hour at room temperature. The plate was washed 3-5 times with PBS-T. The ELISA was developed by adding 100 μL of TMB solution and incubating for 3-15 min at room temperature. To stop the reaction, 100 μL of 1 N sulfuric acid was added to each well. The absorbance at 450 nm was determined using a Spectramax 190 plate reader (Molecular Biosciences) and the data plotted using GraphPad Prism 6.
row,Binder,EC50 (read off the curve)
1,B1,100 to 200 pM
2,B2,~200 pM
3,B3,~200 pM
4,B4,~200 pM
5,B5,~200 pM

# Molecular target: T2, recombinant cynomolgus CD25 (cynomolgus, UniProt H6WS54 22-213)
# T2 construct: also called cyno CD25; cynomolgus CD25/IL2RA
# T2 sequence: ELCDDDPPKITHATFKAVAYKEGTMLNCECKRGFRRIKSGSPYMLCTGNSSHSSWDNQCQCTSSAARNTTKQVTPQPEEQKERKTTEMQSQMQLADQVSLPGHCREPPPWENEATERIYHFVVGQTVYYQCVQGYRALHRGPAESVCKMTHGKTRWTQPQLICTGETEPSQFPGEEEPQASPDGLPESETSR
# Experiment: saturation binding ELISA on recombinant cynomolgus CD25
# Method: as §1
row,Binder,EC50
1,B1,250 pM
2,B6,~238000 pM

# Molecular target: T3, human CD25 on CD25 expressing cells (human, UniProt P01589 22-272)
# T3 construct: Endogenous CD25 on human lymphoma lines (L540cy, Karpas-299) and on human Treg cells; also called CD25 on L540cy cells; CD25 on Karpas-299 cells
# T3 sequence: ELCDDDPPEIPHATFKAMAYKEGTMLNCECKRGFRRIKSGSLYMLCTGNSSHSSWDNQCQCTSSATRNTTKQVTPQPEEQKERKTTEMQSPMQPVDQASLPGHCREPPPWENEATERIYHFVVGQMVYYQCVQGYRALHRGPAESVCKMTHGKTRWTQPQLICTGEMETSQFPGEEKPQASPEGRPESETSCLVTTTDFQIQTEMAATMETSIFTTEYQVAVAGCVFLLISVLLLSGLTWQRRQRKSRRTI
# Experiment: saturation binding by flow cytometry on L540cy cells (CD25: 55,000 per cell), MFI (Gmean)
# Method: (§2) For cellular binding analysis by FACS, cells expressing the target protein of interest (2×10⁵) were treated with a serial dilution of indicated antibody in staining buffer (PBS, 5% FBS, 0.2% NaN₃). Samples were incubated for 1 hour on ice and washed twice with ice-cold staining buffer. Cells were resuspended with anti-human IgG-AF488 or IgG-AF647 (JacksonImmunoResearch), 1:200 dilution in staining buffer) for 1 hour on ice. Cells were washed twice with ice cold staining buffer and resuspended in staining buffer. Labeled cells were examined by flow cytometry on an Invitrogen Attune NxT flow cytometer gated to exclude nonviable cells, and the data analyzed using FlowJo10 software. When determined, the KD was calculated using GraphPad Prism 6 using non-linear regression.
# (§3) Saturation binding analysis was also performed using high CD25 expressing L540cy cells.
row,Binder,EC50 (read off the curve)
1,B1,~1000 pM
2,B7,1000 to 2000 pM
3,B8,~1000 pM
4,B9,1000 to 2000 pM

# Molecular target: T4, mouse CD25 on Yac-1 mouse lymphoma cells (mouse) (UniProt P01590)
# T4 sequence (looked up): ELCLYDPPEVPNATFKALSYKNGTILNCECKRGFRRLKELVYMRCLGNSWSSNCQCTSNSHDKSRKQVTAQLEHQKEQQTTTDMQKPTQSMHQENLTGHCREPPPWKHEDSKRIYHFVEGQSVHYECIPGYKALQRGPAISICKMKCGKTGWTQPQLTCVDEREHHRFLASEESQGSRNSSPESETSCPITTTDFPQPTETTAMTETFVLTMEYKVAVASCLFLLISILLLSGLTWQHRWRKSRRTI
# Experiment: saturation binding by flow cytometry on Yac-1 cells
row,Binder,Kd
1,B10,700 pM

# Molecular target: T2, recombinant cynomolgus CD25
# Experiment: saturation binding ELISA on plate-coated recombinant cynomolgus CD25
# Method: as §1
row,Binder,EC50 (read off the curve)
1,B1,100 to 200 pM

# Molecular target: T3, human CD25 on CD25 expressing cells
# Experiment: saturation binding by flow cytometry on Karpas 299 cells (CD25: 123,000 per cell), GeoMean MFI
# Method: as §2
row,Binder,binding result
1,B11,binds

# Molecular target: T1, recombinant human CD25
# Experiment: saturation binding ELISA on recombinant human CD25
# Remark: another data set of the same source
# Method: as §1
row,Binder,EC50
1,B1,100 pM
2,B6,~116000 pM

# Molecular target: T2, recombinant cynomolgus CD25
# Experiment: ELISA on plate-coated cynomolgus CD25
# Method: as §1
row,Binder,EC50 (read off the curve)
1,B11,~100 pM
2,B1,100 to 200 pM

# Molecular target: T1, recombinant human CD25
# Experiment: saturation binding ELISA on recombinant human CD25
# Remark: another data set of the same source
# Method: as §1
row,Binder,EC50 (read off the curve)
1,B1,100 to 200 pM
2,B7,~800 pM
3,B8,~200 pM
4,B9,~300 pM

# Molecular target: T2, recombinant cynomolgus CD25
# Experiment: saturation binding ELISA on recombinant cynomolgus CD25; EC50 relative to SG25Ab-9
# Method: as §1
row,Binder,Fold Change
1,B6,~950

# Molecular target: T1, recombinant human CD25
# Experiment: saturation binding ELISA on recombinant human CD25; EC50 relative to SG25Ab-9
# Method: as §1
row,Binder,Fold Change
1,B6,~1160

# Molecular target: T1, recombinant human CD25
# Experiment: saturation binding ELISA on plate-coated recombinant human CD25
# Method: as §1
row,Binder,EC50 (read off the curve)
1,B1,100 to 200 pM

# Molecular target: T1, recombinant human CD25
# Experiment: BLI kinetics (Octet RED384), biotinylated hCD25 on SAX tips, 1:1 global fit
# Method: Biotinylated recombinant human CD25 was obtained from Acro Biosystems. Biotinylated hCD25 protein was loaded on SAX (High sensitivity streptavidin) tips at 0.8 nM loading density. Affinity measurements were run using a ForteBio Octet RED384 instrument in the kinetic buffer comprising 1×PBS, 0.1% BSA, 0.02% Tween20, pH 7.4. Association measurements were performed for 300 seconds and disassociation measurements were performed for 900 seconds. Each curve was reference subtracted and modeled using a 1:1 global fit. KD results are reported as kₐ divided by kd.
Binder,Kd,koff,kon
B1,100 pM,2.7e-05 s⁻¹,210000 M⁻¹ s⁻¹
B2,100 pM,2.8e-05 s⁻¹,220000 M⁻¹ s⁻¹
B12,24200 pM,0.0079 s⁻¹,330000 M⁻¹ s⁻¹
B13,800 pM,0.00023 s⁻¹,300000 M⁻¹ s⁻¹
B3,100 pM,3.8e-05 s⁻¹,300000 M⁻¹ s⁻¹
B14,151000 pM,0.004 s⁻¹,26000 M⁻¹ s⁻¹
B7,600 pM,0.00017 s⁻¹,290000 M⁻¹ s⁻¹
B15,1300 pM,0.001 s⁻¹,780000 M⁻¹ s⁻¹
B16,500 pM,0.001 s⁻¹,1.9e+06 M⁻¹ s⁻¹
B4,100 pM,2.6e-05 s⁻¹,240000 M⁻¹ s⁻¹
B8,200 pM,0.0001 s⁻¹,420000 M⁻¹ s⁻¹
B9,300 pM,5.7e-05 s⁻¹,200000 M⁻¹ s⁻¹
B5,100 pM,8.1e-05 s⁻¹,1.6e+06 M⁻¹ s⁻¹
B17,3900 pM,0.0012 s⁻¹,310000 M⁻¹ s⁻¹
B18,21500 pM,0.0085 s⁻¹,390000 M⁻¹ s⁻¹
B6,14000 pM,0.0043 s⁻¹,310000 M⁻¹ s⁻¹

# Molecular target: T3, human CD25 on CD25 expressing cells
# Experiment: saturation binding by flow cytometry on L540cy cells (CD25: 55,000 per cell), MFI (Gmean)
# Remark: another data set of the same source
# Method: as §2, §3
row,Binder,EC50 (read off the curve)
1,B1,~800 pM
2,B2,~900 pM
3,B13,~5000 pM
4,B3,~900 pM
5,B15,~4000 pM
6,B4,~900 pM
7,B5,1000 to 2000 pM
